In test [1] the target is T1, recombinant cyno C1r2s2 His/Flag tetramer (cynomolgus monkey, limits assumed).
T1 construct: Heterotetramer of two C1r-His and two C1s-Flag chains, co-expressed in FreeStyle293-F cells; also called cyno C1r2s2s
T1 chain 1: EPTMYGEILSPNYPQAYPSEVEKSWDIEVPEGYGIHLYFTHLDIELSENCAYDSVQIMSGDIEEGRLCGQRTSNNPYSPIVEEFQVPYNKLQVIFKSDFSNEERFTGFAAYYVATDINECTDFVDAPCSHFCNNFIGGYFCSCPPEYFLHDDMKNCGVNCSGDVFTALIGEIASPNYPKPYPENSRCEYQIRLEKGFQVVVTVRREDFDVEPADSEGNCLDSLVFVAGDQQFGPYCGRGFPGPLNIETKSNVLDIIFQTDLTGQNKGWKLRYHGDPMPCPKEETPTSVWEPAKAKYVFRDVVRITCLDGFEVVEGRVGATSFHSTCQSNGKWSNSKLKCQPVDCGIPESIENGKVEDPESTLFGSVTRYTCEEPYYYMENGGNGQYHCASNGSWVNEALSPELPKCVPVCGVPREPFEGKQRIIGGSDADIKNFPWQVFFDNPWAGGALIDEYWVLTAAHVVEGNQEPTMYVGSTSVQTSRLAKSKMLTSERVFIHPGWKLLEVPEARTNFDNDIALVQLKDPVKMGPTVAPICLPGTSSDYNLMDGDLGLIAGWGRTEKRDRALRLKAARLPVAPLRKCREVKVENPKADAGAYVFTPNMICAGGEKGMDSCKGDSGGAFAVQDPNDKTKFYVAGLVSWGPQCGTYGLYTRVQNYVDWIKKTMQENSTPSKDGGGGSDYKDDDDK
T1 chain 2: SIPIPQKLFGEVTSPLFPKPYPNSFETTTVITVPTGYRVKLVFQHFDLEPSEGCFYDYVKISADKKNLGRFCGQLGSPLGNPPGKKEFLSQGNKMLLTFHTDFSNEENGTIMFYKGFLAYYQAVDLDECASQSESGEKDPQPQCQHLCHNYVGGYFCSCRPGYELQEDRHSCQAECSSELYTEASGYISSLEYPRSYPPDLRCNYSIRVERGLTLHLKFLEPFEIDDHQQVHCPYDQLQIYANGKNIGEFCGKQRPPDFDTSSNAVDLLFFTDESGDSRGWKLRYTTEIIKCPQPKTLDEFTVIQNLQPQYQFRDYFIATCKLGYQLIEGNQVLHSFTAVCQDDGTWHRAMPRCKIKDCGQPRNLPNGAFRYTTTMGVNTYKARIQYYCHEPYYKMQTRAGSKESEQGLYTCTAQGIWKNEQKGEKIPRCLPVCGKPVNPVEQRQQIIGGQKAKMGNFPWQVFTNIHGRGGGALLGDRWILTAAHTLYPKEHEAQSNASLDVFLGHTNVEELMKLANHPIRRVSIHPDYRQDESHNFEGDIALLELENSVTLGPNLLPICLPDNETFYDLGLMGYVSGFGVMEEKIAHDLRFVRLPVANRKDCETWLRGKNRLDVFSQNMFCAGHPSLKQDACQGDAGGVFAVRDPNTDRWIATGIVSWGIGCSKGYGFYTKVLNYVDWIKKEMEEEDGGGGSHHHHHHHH
The test can be described thus: SPR (Biacore), antibody captured on ProA/G, antigen as analyte, 37 C, pH5.8, 1.2 mM CaCl2; pH 5.8. Here is the method:
(§1) The kinetic parameters of anti-C1s antibodies against recombinant human C1s (as described in PCT/JP2018/042054), human C1r2s2, and cyno C1r2s2 His/Flag (also referred as cyno C1r2s2 in the Table and Figures) were assessed at pH7.4 and pH5.8, at 37 degrees C. using BIACORE (registered trademark) T200 instrument (GE Healthcare) or BIACORE 4000 (GE Healthcare). ProAG (Pierce) was immobilized onto a CM4 sensorchip using amine coupling kit (GE Healthcare) according to the recommended settings by GE Healthcare. Antibodies and analytes were diluted into the respective running buffers, ACES pH7.4 and pH5.8 (20 mM ACES, 150 mM NaCl, 1.2 mM CaCl₂, 1 mg/ml BSA, 1 mg/ml CMD, 0.05% Tween 20, 0.005 w/v % NaN₃). Each antibody was captured onto the sensor surface by ProA/G. Antibody capture levels were typically 100-200 resonance units (RU). Then, recombinant C1s was injected at concentrations of 25 and 50 nM followed by dissociation at pH7.4 and pH5.8. The surface was regenerated using 10 mM Glycine-HCl, pH1.5. Kinetic parameters at neutral pH conditions and acidic conditions were determined by fitting the sensorgrams with 1:1 binding model using BIACORE (registered trademark) T200 Evaluation software, version 2.0 (GE Healthcare) or BIACORE 4000 Evaluation software. The dissociation rate at pH5.8 (after dissociation at pH7.4, indicated as pH5.8* in TABLE 2) was determined by processing and fitting data using Scrubber 2.0 (BioLogic Software) curve fitting software. The association rate (ka), dissociation rate (kd), binding affinity (KD) at pH7.4 and pH5.8 condition, and dissociation rate (kd) at pH5.8* condition of the antibodies are listed in TABLE 2. Some kinetic parameters of COS0098pHv1 in acidic condition were not correctly calculated because of its weak binding response.
(§2) Also, to observe the cross-reactivity of anti-C1s antibodies against human C1r2s2 and cyno C1r2s2 (cyno C1r2s2 His/Flag), BIACORE (registered trademark) kinetics analysis was performed.
Background: In SPR one partner is held on a chip, and binding of the other changes the refractive index at the surface.

The target of test [2] is T1, recombinant cyno C1r2s2 His/Flag …. Put plainly: SPR (Biacore), antibody captured on ProA/G, antigen as analyte, 37 C, pH7.4, 1.2 mM CaCl2. How it is done:
as §1, §2

In general, Kd refers to the concentration at which binding is half-saturated. One may read the koff as a measure of how fast the partners let go of each other. The term kon denotes the rate constant with which the complex forms.

B1: COS0098bb (antibody, V domains shown)
VH: QSVEESGGRLVTPGTPLTLTCTVSGFSLTKYTVSWVRQAPGKGLEWIGIINTGGSAYYATWAKGRFTFSKTSTTVDLQITSPTTEDTATYFCARGNGDTDYTNLWGPGTLVTVSS
VL: QVLTQTPSSVSEPVGGTVTINCQASENIYSALAWYQQKPGQPPKLLIYGASNLESGVPSRFKGSGSGTQFTLTISDLECADAATYYCQQYYFTSSTFGGGTKVEIK
notes: Anti-C1s rabbit antibody, parent of COS0098pHv1; the antibody was captured by ProA/G; also called anti-C1s antibody COS0098bb
For B1, in test [1], the Kd was determined as 0.894 nM, the off-rate constant (koff) amounted to 0.00105 s⁻¹ and the kon was 1.17e+06 M⁻¹ s⁻¹.

B2: COS0098pHv1 (antibody, V domains shown)
VH: QVQLVQSGAEVKKPGSSVKVSCKASGHTFSKYTVSWIRQPPGKGLEWIGIINTGGSAYPATWAKGRVTITADESTSTAYMELSSLRSEDTAVYYCARGAGDTDYTNLWGQGTLVTVSS
VL: DIQMTQSPSSLSASVGDRVTITCQASENIYSALAWYQQKPGQPPKLLIYGASQLESGVPSRFSGSGSGTDFTLTISSLQPEDFATYYCQQYYFTSHTFGQGTKVEIK
notes: Humanized, optimized pH-dependent variant of COS0098bb
On to B2, for which, in test [2], the Kd turned out to be 2.87 nM, the koff was 0.00125 s⁻¹ and the kon worked out at 435000 M⁻¹ s⁻¹.

(Values after US20230002481A1 (Chugai, published 2023).)
